Assay results published in US20230272064A1 (ACROIMMUNE BIOTECH, published 2023).
Where “and” joins values, the source holds several entries; their conditions need not be identical. Identical values can stand only once.

Experiments:
[1] = molecular target: T1, recombinant human TIGIT extracellular membrane protein with a C-terminal histidine tag (human, UniProt Q495A1 22-141); assay: competitive ELISA, TIGIT-His coated, competitor biotin-CD155-Fc; average of samples #2 and #4
T1 construct: extracellular domain; Bought protein; two different product numbers are printed for it; also called TIGIT-His; TIGIT-his
T1 sequence (looked up): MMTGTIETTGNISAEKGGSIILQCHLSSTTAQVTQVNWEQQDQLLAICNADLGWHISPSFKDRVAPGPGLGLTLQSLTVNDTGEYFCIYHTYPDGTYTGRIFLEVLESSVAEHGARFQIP

[2] = molecular target: T2, mouse TIGIT on C57/B6 wild-type mouse lymphocytes (mouse, UniProt P86176 29-249); assay: flow cytometry on peripheral blood lymphocytes of a wild-type C57 mouse, 33D2 hybridoma supernatant, FITC rabbit anti-mouse IgG, PE anti-mouse CD3e
T2 construct: whole, on cells
T2 sequence (looked up): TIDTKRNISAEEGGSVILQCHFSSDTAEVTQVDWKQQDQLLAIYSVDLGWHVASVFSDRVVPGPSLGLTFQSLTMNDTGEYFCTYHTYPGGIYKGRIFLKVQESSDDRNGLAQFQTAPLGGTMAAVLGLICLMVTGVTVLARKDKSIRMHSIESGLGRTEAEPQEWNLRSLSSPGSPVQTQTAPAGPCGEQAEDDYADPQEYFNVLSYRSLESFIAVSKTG

B7-1 Fc fusion protein [3] = molecular target: T3, B7-1 Fc fusion protein (Homo sapiens (Human), UniProt P33681 35-242); assay: ELISA, antigen coated at 2 µg/mL
T3 sequence: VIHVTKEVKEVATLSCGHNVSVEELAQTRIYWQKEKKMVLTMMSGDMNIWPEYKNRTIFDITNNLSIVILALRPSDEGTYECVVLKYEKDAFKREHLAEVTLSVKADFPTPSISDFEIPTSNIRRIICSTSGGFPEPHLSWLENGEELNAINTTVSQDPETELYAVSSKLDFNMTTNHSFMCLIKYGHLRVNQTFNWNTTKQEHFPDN

CD28 Fc fusion protein [4] = molecular target: T4, CD28 Fc fusion protein (Homo sapiens (Human), UniProt P10747 19-152); assay: ELISA, antigen coated at 2 µg/mL
PD-1 Fc fusion protein [5] = molecular target: T5, PD-1 Fc fusion protein (Homo sapiens (Human), UniProt Q15116 25-170); assay: ELISA, antigen coated at 2 µg/mL
BTLA Fc fusion protein [6] = molecular target: T6, BTLA Fc fusion protein (Homo sapiens (Human), UniProt Q7Z6A9 31-157); assay: ELISA, antigen coated at 2 µg/mL
T6 sequence: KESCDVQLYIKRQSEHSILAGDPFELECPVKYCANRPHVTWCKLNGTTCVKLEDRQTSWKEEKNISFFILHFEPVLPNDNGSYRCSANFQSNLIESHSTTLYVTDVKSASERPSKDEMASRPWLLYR

[7] = molecular target: T1, recombinant human TIGIT extracellular …; assay: competitive ELISA, TIGIT-His coated, competitor biotin-CD155-Fc
[8] = molecular target: T1, recombinant human TIGIT extracellular …; assay: ELISA, antigen coated at 2 µg/mL, mAb at 1 µg/mL
PD-L2 Fc fusion protein = molecular target: T7, PD-L2 Fc fusion protein; assay: ELISA, antigen coated at 2 µg/mL, mAb at 1 µg/mL
T7 sequence (Q9BQ51 whole entry, species assumed, looked up): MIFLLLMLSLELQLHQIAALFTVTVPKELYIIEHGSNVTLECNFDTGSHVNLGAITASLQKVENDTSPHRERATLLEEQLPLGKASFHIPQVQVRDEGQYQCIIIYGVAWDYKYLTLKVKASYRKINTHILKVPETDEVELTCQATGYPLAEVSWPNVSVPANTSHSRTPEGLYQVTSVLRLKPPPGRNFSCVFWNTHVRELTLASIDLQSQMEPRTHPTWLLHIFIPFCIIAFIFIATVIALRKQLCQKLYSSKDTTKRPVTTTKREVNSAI

PD-L1 Fc fusion protein = assay: ELISA, antigen coated at 2 µg/mL, mAb at 1 µg/mL
B7-1 Fc fusion protein [9] = molecular target: T3, B7-1 Fc fusion protein; assay: ELISA, antigen coated at 2 µg/mL, mAb at 1 µg/mL
[10] = molecular target: PV1- (coated antigen of Table 2); assay: ELISA, antigen coated at 2 µg/mL, mAb at 1 µg/mL
CTLA4 Fc fusion protein = assay: ELISA, antigen coated at 2 µg/mL, mAb at 1 µg/mL
Sirpa Fc fusion protein = assay: ELISA, antigen coated at 2 µg/mL, mAb at 1 µg/mL
CD3 Fc fusion protein = assay: ELISA, antigen coated at 2 µg/mL, mAb at 1 µg/mL
CD28 Fc fusion protein [11] = molecular target: T4, CD28 Fc fusion protein; assay: ELISA, antigen coated at 2 µg/mL, mAb at 1 µg/mL
[12] = molecular target: PD1H (PD2) Fc fusion protein; assay: ELISA, antigen coated at 2 µg/mL, mAb at 1 µg/mL
PD-1 Fc fusion protein [13] = molecular target: T5, PD-1 Fc fusion protein; assay: ELISA, antigen coated at 2 µg/mL, mAb at 1 µg/mL
BTLA Fc fusion protein [14] = molecular target: T6, BTLA Fc fusion protein; assay: ELISA, antigen coated at 2 µg/mL, mAb at 1 µg/mL
[15] = molecular target: T1, recombinant human TIGIT extracellular …; assay: BLI (Fortebio-OCTET RED96), mAb captured on FAB2G sensor, TIGIT-His monomer as analyte, global fit, monovalent binding

T5 sequence (Q15116 25-170 limits assumed): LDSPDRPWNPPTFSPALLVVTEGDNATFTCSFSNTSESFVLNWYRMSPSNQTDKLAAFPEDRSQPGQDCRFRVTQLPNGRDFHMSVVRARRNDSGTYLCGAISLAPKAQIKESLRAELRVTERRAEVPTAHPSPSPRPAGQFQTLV
T4 sequence (P10747 19-152 limits assumed): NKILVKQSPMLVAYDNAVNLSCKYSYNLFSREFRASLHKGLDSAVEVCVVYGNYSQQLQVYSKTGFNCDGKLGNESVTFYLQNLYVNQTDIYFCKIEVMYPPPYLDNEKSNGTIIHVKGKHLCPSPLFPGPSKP
CTLA4 Fc fusion protein, sequence (P16410 36-161): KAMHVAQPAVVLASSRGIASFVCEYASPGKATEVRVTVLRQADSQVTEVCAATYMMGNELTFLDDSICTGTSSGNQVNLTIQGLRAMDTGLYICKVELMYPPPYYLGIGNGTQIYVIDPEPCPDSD
PD-L1 Fc fusion protein, sequence (Q9NZQ7 whole entry, the tested form may be a part): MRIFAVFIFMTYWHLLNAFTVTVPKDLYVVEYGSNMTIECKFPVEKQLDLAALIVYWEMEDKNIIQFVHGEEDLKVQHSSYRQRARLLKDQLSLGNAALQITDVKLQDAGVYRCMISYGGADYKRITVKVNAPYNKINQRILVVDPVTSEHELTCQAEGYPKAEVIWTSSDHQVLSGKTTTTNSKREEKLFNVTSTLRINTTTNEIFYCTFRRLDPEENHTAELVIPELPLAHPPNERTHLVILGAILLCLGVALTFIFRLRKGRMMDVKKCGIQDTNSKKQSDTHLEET
Sirpa Fc fusion protein, sequence (P78324 whole entry, the tested form may be a part): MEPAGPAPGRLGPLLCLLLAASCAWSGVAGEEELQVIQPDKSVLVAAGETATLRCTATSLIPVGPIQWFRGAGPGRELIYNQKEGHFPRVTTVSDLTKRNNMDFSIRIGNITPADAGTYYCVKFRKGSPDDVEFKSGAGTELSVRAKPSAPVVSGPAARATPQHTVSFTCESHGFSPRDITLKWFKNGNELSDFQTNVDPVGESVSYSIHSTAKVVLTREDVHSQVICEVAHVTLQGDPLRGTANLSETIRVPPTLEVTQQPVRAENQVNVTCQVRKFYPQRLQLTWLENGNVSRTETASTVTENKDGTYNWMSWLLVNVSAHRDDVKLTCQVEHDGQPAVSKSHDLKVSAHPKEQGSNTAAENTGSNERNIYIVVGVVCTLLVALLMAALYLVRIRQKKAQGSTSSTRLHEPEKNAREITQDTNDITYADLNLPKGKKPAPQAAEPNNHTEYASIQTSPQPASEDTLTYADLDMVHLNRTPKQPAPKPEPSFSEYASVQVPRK

B1: murine anti-human TIGIT monoclonal antibody 33D2 (antibody, V domains shown)
VH: EVQLQQSGPDLVKPGASVKISCKASGYSFTGYYMHWVKQSHGKSLEWIGRVNPNNGDTRYNQKFKGKAILTVDKSSSTAYMELRSLTSEDSAVYYCAREGDYDERFAYWGQGTLVTVSA
VL: DIVMTQSHKFMSTSLGDRVSITCKASQDVGSTVAWYQQKPGQSPKLLIYWASTRHTGVPDRFTGSGSGTDFTLTITNVQSEDLADYFCQQYTSFPYTFGGGTKLEIK
notes: Mouse hybridoma antibody, used as purified protein (Protein G) or as hybridoma supernatant; also called m33D2; 33D2 mAb
[1]
  IC50: 0.13 µg/mL and 0.867 nM
[2]
  binding result: no binding
B7-1 Fc fusion protein [3]
  binding result: no binding (tested: 1 µg/mL)
CD28 Fc fusion protein [4]
  binding result: no binding (tested: 1 µg/mL)
PD-1 Fc fusion protein [5]
  binding result: no binding (tested: 1 µg/mL)
BTLA Fc fusion protein [6]
  binding result: no binding (tested: 1 µg/mL)
[7]
  IC50: 0.135 µg/mL and 0.9 nM and 0.125 µg/mL and 0.833 nM
[8]
  OD at 495 nm: 1.01 OD
PD-L2 Fc fusion protein
  OD at 495 nm: 0.04 OD
PD-L1 Fc fusion protein
  OD at 495 nm: 0 OD
B7-1 Fc fusion protein [9]
  OD at 495 nm: 0.03 OD
[10]
  OD at 495 nm: 0.05 OD
CTLA4 Fc fusion protein
  OD at 495 nm: 0.02 OD
Sirpa Fc fusion protein
  OD at 495 nm: 0.01 OD
CD3 Fc fusion protein
  OD at 495 nm: 0.01 OD
CD28 Fc fusion protein [11]
  OD at 495 nm: 0.03 OD
[12]
  OD at 495 nm: 0.01 OD
PD-1 Fc fusion protein [13]
  OD at 495 nm: 0.01 OD
BTLA Fc fusion protein [14]
  OD at 495 nm: 0.01 OD

B2: humanized antibody h33D2 (antibody, V domains shown)
VH: QVQLVQSGAEVKKPGASVKVSCKASGYSFTGYYMHWVRQAPGQGLEWMGRVNPNNGDTRYNQKFKGRVTMTRDTSISTAYMELSRLRSDDTVVYYCAREGDYDERFAYWGQGTLVTVSA
VL: DIQLTQSPSFLSASVGDRVTITCKASQDVGSTVAWYQQKPGKAPKLLIYWASTRHTGVPSRFSGSGSGTEFTLTISSLQPEDFATYYCQQYTSFPYTFGGGTKLEIK
notes: IgG4-kappa; human IgG4 heavy chain constant region with S228P in the hinge and human kappa light chain constant region; also called humanized 33D2 mAb; h33D2-light chain and h33D2-heave chain
[15]
  Kd: 0.843 nM
  koff: 0.00023 s⁻¹
  kon: 273000 M⁻¹ s⁻¹
